Earlier results, collected in PMC1976947.

Molecular target: G-CSF receptor (Mus musculus) (UniProt P40223)
Sequence of UniProt P40223 (P40223 26-837): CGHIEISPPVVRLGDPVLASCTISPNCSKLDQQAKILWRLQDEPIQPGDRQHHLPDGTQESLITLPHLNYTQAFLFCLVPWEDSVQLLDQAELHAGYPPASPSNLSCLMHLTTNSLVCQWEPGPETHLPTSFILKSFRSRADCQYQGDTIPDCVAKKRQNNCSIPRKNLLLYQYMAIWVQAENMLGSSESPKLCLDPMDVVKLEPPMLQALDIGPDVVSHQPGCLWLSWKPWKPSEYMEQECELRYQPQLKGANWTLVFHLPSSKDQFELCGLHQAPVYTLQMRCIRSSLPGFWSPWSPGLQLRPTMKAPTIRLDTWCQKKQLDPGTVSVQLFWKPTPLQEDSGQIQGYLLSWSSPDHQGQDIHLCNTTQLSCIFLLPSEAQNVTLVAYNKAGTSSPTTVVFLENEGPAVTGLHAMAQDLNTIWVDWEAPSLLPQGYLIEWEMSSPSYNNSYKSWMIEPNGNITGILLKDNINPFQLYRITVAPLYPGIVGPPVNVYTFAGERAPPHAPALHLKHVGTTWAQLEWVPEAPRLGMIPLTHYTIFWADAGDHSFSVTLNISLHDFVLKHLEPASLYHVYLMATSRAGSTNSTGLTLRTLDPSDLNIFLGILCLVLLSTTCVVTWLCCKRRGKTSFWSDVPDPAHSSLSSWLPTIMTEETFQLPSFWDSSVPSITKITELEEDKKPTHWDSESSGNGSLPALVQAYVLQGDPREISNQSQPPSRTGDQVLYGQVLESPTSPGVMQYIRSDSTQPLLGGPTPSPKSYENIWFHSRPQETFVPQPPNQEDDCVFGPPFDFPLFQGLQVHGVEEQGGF

Sequence of G-CSF (P09919 31-207): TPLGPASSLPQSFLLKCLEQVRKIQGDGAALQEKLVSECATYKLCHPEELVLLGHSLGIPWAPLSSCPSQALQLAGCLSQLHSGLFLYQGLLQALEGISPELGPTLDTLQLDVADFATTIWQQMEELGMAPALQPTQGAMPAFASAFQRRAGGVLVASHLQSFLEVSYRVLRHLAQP

- Kd: 0.07 nM
Substance: G-CSF (from UniProt P09919)
